Measurements published in publication PMC1500868 (Nucleic Acids Research, 2006).

Target: T1, GST-SAP30L (human, UniProt Q9HAJ7 1-183)
T1 sequence (looked up): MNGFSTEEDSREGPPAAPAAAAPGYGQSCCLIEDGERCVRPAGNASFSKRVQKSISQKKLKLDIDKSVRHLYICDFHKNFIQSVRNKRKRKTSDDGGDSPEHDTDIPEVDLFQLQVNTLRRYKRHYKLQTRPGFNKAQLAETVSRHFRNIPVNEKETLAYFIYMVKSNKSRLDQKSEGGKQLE
Assay: pull-down

B1: in vitro translated N-terminally deleted SAP30L (SAP30L 61–183) (domain or fragment, human, UniProt Q9HAJ7 61-183, looked up)
chain: KLDIDKSVRHLYICDFHKNFIQSVRNKRKRKTSDDGGDSPEHDTDIPEVDLFQLQVNTLRRYKRHYKLQTRPGFNKAQLAETVSRHFRNIPVNEKETLAYFIYMVKSNKSRLDQKSEGGKQLE
modifications: 35S-methionine label
**Q.** B1 was tested. Which “fold change of interaction against full-length SAP30L” value did it give?
**A.** > 2 fold
